Data on 167 variants can be found in the RNAGym collection of RNA variant scans (doi:10.7554/elife.90254).

Sequences and labels used below:
B1: LINE1-full (parent)
chain: UACGUAGGUGGUUUUCCCCUGAUAGUGCUAAGGGGGCCUGGAAGUUUGGACUGGGCAGAGCUCAACACAGCGUGGCAAAGUGGCUGUGGCUAGACUGCCUCUCUGGAUUCCUCGUCACUCAGCAGGGCAUCUCUGAGAGAAAUGCC

The variants in the series derive from B1. As to the kind of experiment: self-cleavage, relative activity (ratio to wild type); higher = more cleavage; in vitro, sequencing; the parent is a self-cleaving ribozyme.
For the variant A69G C146A, the self-cleavage was found to be 0.77. As for U73C G125C, the figure is 2.47; as for U73C G125A, 0.8; as for A69U A140G, 0.04. Consider A69U G97C, for which the self-cleavage stood at 0. Take U73C A79U: the self-cleavage amounted to 1.65. The result for U73A G93U reads 0.03; that for G72A G122A, 1.6. For U73A U143A, the self-cleavage was 1.75. On to U73A U143C, for which the self-cleavage worked out at 1.4. Consider G72U U143C, for which the self-cleavage was 1.02.

For the variant U73C U115A, the self-cleavage stood at 1.58.

As to G72A A94U, the self-cleavage is 0.06. The result for C71A U130A reads 0.17. For G70U U112A, the self-cleavage amounted to 0.05. Consider G70U U112C, for which the self-cleavage was found to be 0.06. Turning to U73A G137A, the self-cleavage amounted to 1.7. As for G74A U100A, the self-cleavage worked out at 0.7. With U73G U134A, the self-cleavage came to 0.88. Take G74A U96A: the self-cleavage is 0.07. Turning to U73C C90G, the self-cleavage was determined as 0.01. In the case of U73C C90U, the self-cleavage worked out at 0.01. As for U73C G127U, the self-cleavage is 0.92.

For A69U G126A, the self-cleavage came out at 0.05.

Consider U73A U100C, for which the self-cleavage stood at 2.71. As for U73A U100A, the self-cleavage was 0.97. As for G70A A94G, the self-cleavage stood at 0.07. Turning to A69G C99G, the self-cleavage came to 0.

U73G U130C: the self-cleavage was 2.25. In the case of U73C U130A, the self-cleavage is 1.2. On to U73C U130C, for which the self-cleavage came out at 1.81.

As for A69G G83A, the self-cleavage stood at 0.18. As to A69G G83U, the self-cleavage is 0.15. Regarding U73C A77G, the self-cleavage came to 2.78. Turning to A69G A136C, the self-cleavage turned out to be 0.49. Regarding U73A A92G, the self-cleavage amounted to 0.13. For the variant U73A A92U, the self-cleavage was 0.8. In the case of U73A A78C, the self-cleavage worked out at 2.67. As for U73A A78G, the figure is 0.34; as for U73A A78U, 1.94; as for G70A A136U, 0.16. Take A69G G105A: the self-cleavage was found to be 0.62. On to C71A U108C, for which the self-cleavage was 0.43. Take U73A A124U: the self-cleavage came to 1.4. G74A U85A: the self-cleavage stood at 0.05. The result for U73A G83A reads 0.53; that for U73A C113U, 1.41. The result for G70U G97A reads 0.01; that for G72U U134C, 1.24; that for G72A U143A, 1.85. With U73C A92G, the self-cleavage is 0.16. With A69G A129G, the self-cleavage is 0.58.

As to A69U A138G, the self-cleavage is 0.07.

For U73C C113U, the self-cleavage came to 1.85.

For A69G G144A, the self-cleavage worked out at 1.02. With A69U U143C, the self-cleavage worked out at 0.07. With A69U U143A, the self-cleavage came out at 0.04. U73A U132C: the self-cleavage came to 1.53. For U73A U132A, the self-cleavage was 1.73. As for U73C C118A, the figure is 1.46; as for G72U U73C, 0.9. As for G72A U130C, the figure is 1.85. The result for U73A A94G reads 0.35; that for U73A A94C, 0.05; that for A69U U102C, 0.06. Take U73C A121G: the self-cleavage stood at 2.05. As for U73C A121C, the self-cleavage came out at 0.54. In the case of G72A U87C, the self-cleavage was found to be 0.25.

As to U73A U91C, the self-cleavage amounted to 0.19.

Regarding G74A A129U, the self-cleavage is 1.09. Regarding G74A A129G, the self-cleavage was found to be 1.53. Turning to A69U U96C, the self-cleavage is 0.03.

Consider A69U A142G, for which the self-cleavage stood at 0.06. As for A69G C76U, the self-cleavage came to 0.69. Turning to U73C U85A, the self-cleavage came out at 0.08.

Turning to U73C G83A, the self-cleavage stood at 1.63. For U73G A77G, the self-cleavage turned out to be 0.98. In the case of U73A U134G, the self-cleavage stood at 0.45. With U73A U134C, the self-cleavage is 1.46. With U73A U134A, the self-cleavage came to 1.28. As to C71U A117U, the self-cleavage is 0.98.

As to U73C G126U, the self-cleavage was 1.85. As for U73C G126A, the figure is 2.44; as for U73A U96C, 0.1; as for U73A U96A, 0.05. Regarding U73G U132C, the self-cleavage is 1.58. As for A69G C145A, the figure is 0.71; as for U73C A117U, 2.34; as for U73C A117G, 1.23. In the case of A69U U91A, the self-cleavage stood at 0.05. For the variant A69U U91C, the self-cleavage was 0.06. For U73G A142G, the self-cleavage came to 1.2. With U73A G105A, the self-cleavage turned out to be 2.29. With U73C G88A, the self-cleavage stood at 0.06. With U73C U143A, the self-cleavage amounted to 1.63.

Turning to U73C U143C, the self-cleavage was found to be 2.13. As for G70A A79G, the self-cleavage is 0.1. The result for C71A C145U reads 0.18; that for U73C U91A, 0.57.

With C71U U130C, the self-cleavage was 1. Regarding G70A A141G, the self-cleavage stood at 0.17.

With G72U U91C, the self-cleavage amounted to 0.49. As for G72U U91A, the figure is 0.49; as for A69U G82A, 0.14; as for A69G A107U, 0.

In the case of C71U U143C, the self-cleavage turned out to be 0.64.

As for G72A A117U, the self-cleavage was found to be 1.54. In the case of C71G U81A, the self-cleavage was determined as 0.28. The result for C71G U81C reads 0.27.

Consider A69G U85A, for which the self-cleavage was found to be 0.09. The result for C71U A138U reads 1.04. As for U73A A142G, the figure is 1.57; as for U73A A142U, 1.41; as for U73A A136G, 1.61. Take A69U A92G: the self-cleavage amounted to 0.03. For the variant A69G A92U, the self-cleavage was 0.13. With A69G A92G, the self-cleavage came out at 0.23. With G72C U108G, the self-cleavage came out at 0.96. Turning to U73C A136G, the self-cleavage is 1.64. For A69U C118U, the self-cleavage came out at 0.01. The result for C71U C76U reads 1.15; that for U73C A78G, 1.12.

For the variant U73C A78C, the self-cleavage amounted to 0.77.

Consider U73A A140U, for which the self-cleavage was determined as 1.88.

As to A69G C71U, the self-cleavage was 0.1. Take U73A C84U: the self-cleavage is 0.16. As for G74A A124C, the self-cleavage was found to be 1.58. The result for G74A A124G reads 0.51; that for A69U C71U, 0.02. As for U73A C101U, the figure is 2.61. Consider C71G A77G, for which the self-cleavage was found to be 0.4.

In the case of A69G U81C, the self-cleavage is 0.54. For A69G U81A, the self-cleavage was determined as 0.38.

For A69G C111U, the self-cleavage is 0.47. Take U73G C84U: the self-cleavage was determined as 0.17. Consider C71U C90A, for which the self-cleavage is 0.04. Consider G72U A121G, for which the self-cleavage turned out to be 1.32. With G72U A121U, the self-cleavage is 1.08. As for A69U G88A, the self-cleavage was found to be 0.01. With A69U A94G, the self-cleavage worked out at 0.02. For the variant G72A U134A, the self-cleavage came out at 1.15.

Regarding G70U, the self-cleavage came out at 0.05. On to G70C, for which the self-cleavage is 0.15. In the case of G70A, the self-cleavage amounted to 0.1. As for U73C C128A, the figure is 0.94; as for G70A U100A, 0.05; as for A69G U108C, 0.68. With G72U A129G, the self-cleavage worked out at 1.08. The result for G74A A94U reads 0.17. The result for A69G A94G reads 0.14; that for A69G A94U, 0.13. Regarding A69U U104C, the self-cleavage was 0.05. As for A69G G93U, the figure is 0.01; as for U73C U81A, 2.36; as for U73C U81G, 2.04. The result for U73A A77G reads 2.29; that for U73A C120U, 1.79.

For A69G G97U, the self-cleavage turned out to be 0.07. As for C71U C99G, the figure is 0.12; as for U73G U91C, 0.29.

U73A U108C: the self-cleavage turned out to be 2.23. The result for U73A U108G reads 0.44; that for C71U A77G, 0.86. For G72A U85C, the self-cleavage came out at 0.08.

In the case of A69U A117G, the self-cleavage stood at 0.08. In the case of G70A G80A, the self-cleavage was determined as 0.48.

U73A G125A: the self-cleavage was 1.92.
